Patent US20190359719A1 (published 2019)
Where a chain is given by its changes, count along the chain named. Read-outs that look alike come from different tables or passages of the source.

T1: recombinant c-Met extracellular domain (R&D Systems cat#358-MT-100/CF) (UniProt P08581 25-932)
T1 chain: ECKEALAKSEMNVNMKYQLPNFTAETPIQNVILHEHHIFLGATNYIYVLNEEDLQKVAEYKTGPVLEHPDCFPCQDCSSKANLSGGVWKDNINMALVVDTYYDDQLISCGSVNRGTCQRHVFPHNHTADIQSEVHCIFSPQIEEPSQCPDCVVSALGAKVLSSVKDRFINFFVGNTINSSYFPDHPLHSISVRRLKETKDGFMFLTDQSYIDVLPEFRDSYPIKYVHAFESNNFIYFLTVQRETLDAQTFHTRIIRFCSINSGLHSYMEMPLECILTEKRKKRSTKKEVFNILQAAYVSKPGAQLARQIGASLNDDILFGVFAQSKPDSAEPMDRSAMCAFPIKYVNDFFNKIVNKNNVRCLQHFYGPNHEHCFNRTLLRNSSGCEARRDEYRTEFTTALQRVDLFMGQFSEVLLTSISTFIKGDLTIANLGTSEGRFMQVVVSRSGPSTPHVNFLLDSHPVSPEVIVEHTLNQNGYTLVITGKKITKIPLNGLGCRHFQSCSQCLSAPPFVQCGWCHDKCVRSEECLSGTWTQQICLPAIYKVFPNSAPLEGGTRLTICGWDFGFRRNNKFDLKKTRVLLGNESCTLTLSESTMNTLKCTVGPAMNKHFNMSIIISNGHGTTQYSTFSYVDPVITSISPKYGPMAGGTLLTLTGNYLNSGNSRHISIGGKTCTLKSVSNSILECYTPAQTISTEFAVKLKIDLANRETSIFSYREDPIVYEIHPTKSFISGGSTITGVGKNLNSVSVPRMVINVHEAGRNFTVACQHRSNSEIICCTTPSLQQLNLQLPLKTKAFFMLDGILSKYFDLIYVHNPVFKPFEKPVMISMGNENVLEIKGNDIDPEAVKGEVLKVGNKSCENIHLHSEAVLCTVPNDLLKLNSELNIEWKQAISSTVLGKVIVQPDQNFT

B1: F3 anti-c-Met antibody in IgG format (antibody, V domains shown)
VH: QVQLVESGPGLVKPSGTLSLTCAVSGGSISSSNWWSWVRQPPGKGLEWIGEIYHSGSTNYNPSLKSRVTISVDKSKNQFSLKLSSVTAADTAVYYCARSAYGDYFLDYWGQGTLVTVSS
VL: QSVLTQPASVSGSPGQSITISCTGTSSDVGGYNYVSWYQQHPGKAPKLLIYDVDSRPSGVSNRFSGSKSGNTASLTISGLQAEDEADYYCSSFTSSSTLVVFGGGTKVTVL
B2: B12 anti-c-Met antibody in IgG format (antibody, V domains shown)
VH: QVQLVESGAEVKKPGASVKVSCKASGYTFTGYYMHWVRQAPGQGLEWMGWINPNSGNTGYAQKFQGRVTMTRNTSISTAYMELSSLRSEDTAVYYCARRGTTVSFDYWGQGTTVTVSS
VL: QAVLTQPPSVSGSPGQSITISCTGTSSDVGTFNLVSWYQQHPGKAPKLIIYEVSKRPSDVSPRYSGSKSGTTASLTISVLQTEDEADYYCCSYTTSSSYVFGIGTKVTVL
B3: E1 anti-c-Met antibody in IgG format (antibody, V domains shown)
VH: QVQLVQSGAEVKKPGASVKVSCKTSGYTFSGDYMHWVRQAPGQGLEWMGWINPNSGGTNYAQKFQGRVTMTRDTSISTAYMELSRLRSDDTAVYYCAREPGRDYYYYDGMDVWGQGTTVTVSS
VL: QSVVTQPPSVSGAPGQRVTISCTGSSSNIGAGYDVHWYQQLPGTVPKLLIYGNSNRPSGVPDRFSGSKSGTSASLAITGLQAEDEADYYCQSYDSSLSAYVFGTGTKVTVL
B4: El-A14 (E1 derived anti-c-Met antibody) (antibody, V domains shown)
VH: B3 VH with T24A, M34I, G101A, M110L
VL: B3 VL with T23I, Y33H, V45A, D94S
B5: El-B11 (E1 derived anti-c-Met antibody) (antibody, V domains shown)
VH: B3 VH with T24A, M34I, G101A, M110L
VL: B3 VL with T23I, V45A, P57I, D94S, Y100V, V101L
B6: El-A11 (E1 derived anti-c-Met antibody) (antibody, V domains shown)
VH: B3 VH with T24A, Y27F, M34I, G101A, M110L
VL: B3 VL with T23L, Y33H, V45A, P57I, D94S, V101L
B7: El-B19 (E1 derived anti-c-Met antibody) (antibody, V domains shown)
VH: B3 VH with T24A, Y27F, M34I, M110L
VL: B3 VL with T23L, S26A, Y33H, V45A, D94S, Y100V, V101L
B8: El-A18 (E1 derived anti-c-Met antibody) (antibody, V domains shown)
VH: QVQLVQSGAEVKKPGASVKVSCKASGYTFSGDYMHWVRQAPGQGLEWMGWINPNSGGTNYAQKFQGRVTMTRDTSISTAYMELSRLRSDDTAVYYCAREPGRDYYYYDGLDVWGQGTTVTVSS
VL: B3 VL with T23I, S26A, Y33H, V45A, D94S
B9: El-BR1 (E1 derived anti-c-Met antibody) (antibody, V domains shown)
VH: B3 VH with T24A, Y27S, M34L, G101A, M110L
VL: B3 VL with T23L, S26A, V45A, D94S, Y100V, V101L
B10: El-A10 (E1 derived anti-c-Met antibody) (antibody, V domains shown)
VH: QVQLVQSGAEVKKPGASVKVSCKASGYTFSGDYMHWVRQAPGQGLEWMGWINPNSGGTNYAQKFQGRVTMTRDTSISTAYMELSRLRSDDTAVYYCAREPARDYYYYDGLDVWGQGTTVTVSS
VL: B3 VL with T23L, S26A, Y33H, V45A, D94S
B11: A2 (antibody, V domains shown)
VH: QVQLQESGPGLVKPSGTLSLTCAVSGGSISRSNWWSWVRQPPGKGLEWIGEVYHSGSTNYNPSLKSRVTISVDKSKNQFSLKVNSVTAADTAVYYCARDSDGGYYFDYWGQGTLVTVSS
VL: LPVLTQPASVSGSPGQSITISCTGTSSDVGGYKYVSWYQQHPGKAPKLLIYDVTDRPSGVSNRFSGSQSGNTASLTISGLQTEDEADYYCSSYTDNGALVVFGGGTKLTVL
B12: A1-4 anti-c-Met antibody (antibody, V domains shown)
VH: QVQLQESGPGLVKPSQTLSLTCTVSGGSISSGGYYWSWIRQHPGKGLEWIGESSHSGSTNYNPSLKSRVTISVDTSKNQFSLKLSSVTAADTAVYYCARGRDGYYFDAWGQGTLVTVSS
VL: LPVLTQPASVSGSPGQSITISCTGTSSDVGGYPYVSWYQQHPGKAPKLMIYVVSDRPSGVSTRFSGSKSGNTASLTISGLQAEDEADYYCSSYRSSSALVVFGGGTQLTVL
B13: A1 anti-c-Met antibody in IgG format (antibody, V domains shown)
VH: B12 VH with S53I, S54N, Y105D, A108P
VL: B12 VL with P33N, V52D, Q107K
B14: A1-32 anti-c-Met antibody (antibody, V domains shown)
VH: B12 VH with S54T, K66D, F106L, A108Q
VL: B12 VL with S27F, V52D, Y93F, S97A, Q107K
B15: A1-6 anti-c-Met antibody (antibody, V domains shown)
VH: B12 VH with S53I, S54T, Y105D, F106I
VL: B12 VL with S27W, V52D, S96V, Q107K
B16: A1-2 anti-c-Met antibody (antibody, V domains shown)
VH: B12 VH with S54T, Y105D
VL: B12 VL with S27F, P33N, V52D, Y93F, Q107K
B17: A1-9 anti-c-Met antibody (antibody, V domains shown)
VH: B12 VH with S53I, F106L, A108Q
VL: B12 VL with P33N, V52N, Y93F, Q107K
B18: A1-8 (antibody, V domains shown)
VH: B12 VH with S53I, K66E, Y105D, F106L, A108R
VL: B12 VL with V52R, S97A, Q107K
B19: A1-24 anti-c-Met antibody (antibody, V domains shown)
VH: B12 VH with S54T, K66E, G103S, Y105D
VL: B12 VL with S27F, P33N, V52D, Y93F, S97A, Q107K
B20: H8 anti-c-Met antibody in IgG format (antibody, V domains shown)
VH: EVQLVQSGAEVKKPGASVKVSCKASGYTFSSYYMHWVRQAPGQGLEWMGWINPNSGNTGYAQKFQGRVTMTRNTSISTAYMELSSLRSEDTAVYYCARRGTTVSFDYWGQGTLVTVS
VL: QLVLTQSPSVSVAPGQRVTISCSGSNSNIGNNYVSWYHHLPGTAPKLLIYDNNKRPSGIPDRFSGSKSGTSATLGITGLQPGDEAHYYCGTWDSTLSAGVFGGGTKLTVL
B21: A8 (antibody, V domains shown)
VH: QITLKESGAEVKKPGSSVKVSCKASGGTFSSYGISWVRQAPGQGLEWMGGIIPMFGTANYAQKFQGRVTITADESTSTAYMELSSLRSEDTAVYYCARDEVAPDYYGSGPSYGMDVWGQGTMVTVSS
VL: SYELMQPASVSGSPGQSITISCTGTSSDVGGYDHVSWYQQHPGKAPKLMIYAVRNRPSGVPDRFSGSKSGNTASLTISGLQAEDEADYYCSSYTSSLTYVFGTGTKVTVL
B22: D6 anti-c-Met antibody in IgG format (antibody, V domains shown)
VH: QVQLQQWGAGLLKPSETLSLTCAVYGGSFSGYYWSWIRQPPGKGLEWIGEINHSGSTNYNPSLKSRVTISVDTSKNQFSLKLSSVTAADTAVYYCARGRDGYDFDPWGQGTLVTVSS
VL: QSVLTQPPSASGSPGQSVTISCTGTSSDVGGYNYVSWYQQHPGKAPKLMIYEVSKRPSGVPDRFSGSKSGNTASLTVSGLQAEDEADYYCSSYAGSNNLVVFGGGTQLTVL

Key:
[1] = target: T1, recombinant c-Met extracellular domain …; experiment: Octet Red (BLI)
[2] = target: T1, recombinant c-Met extracellular domain …; experiment: Biacore SPR
[3] = target: T1, recombinant c-Met extracellular domain …; experiment: ELISA, blocking of HGF binding to c-Met
[4] = target: T1, recombinant c-Met extracellular domain …; experiment: Biacore SPR
[5] = target: T1, recombinant c-Met extracellular domain …; experiment: Octet Red (BLI)
[6] = target: T1, recombinant c-Met extracellular domain …; experiment: Octet Red (BLI)
[7] = target: T1, recombinant c-Met extracellular domain …; experiment: ELISA, blocking of HGF binding to c-Met
[8] = target: T1, recombinant c-Met extracellular domain …; experiment: Octet Red (BLI)

Binder | IC50 [3] [nM] | IC50 [7] [nM] | also measured
B1 | – | – | Kd [1]: 0.7 nM
B2 | – | – | Kd [1]: 0.15 nM
B3 | 3.18 | – | Kd [2]: 18.6 nM; Ka [4]: 5.37e+07 M⁻¹; Kd [5]: 4.5 nM
B4 | 2.31 | – | –
B5 | 2.98 | – | –
B6 | 2.26 | – | –
B7 | 2.63 | – | –
B8 | 2.69 | – | –
B9 | 3.11 | – | –
B10 | 2.61 | – | –
B11 | – | – | Kd [6]: 2.2 nM
B12 | – | 1.44 | –
B13 | – | 1.73 | Kd [2]: 1.98 nM; Kd [8]: 0.8 nM; Ka [4]: 5.3e+08 M⁻¹
B14 | – | 0.91 | –
B15 | – | 1.34 | –
B16 | – | 1.22 | –
B17 | – | 1.72 | –
B18 | – | 1.14 | –
B19 | – | 1.52 | –
B20 | – | – | Kd [5]: 0.8 nM
B21 | – | – | Kd [8]: 1.5 nM
B22 | – | – | Kd [6]: 1.9 nM
